Experimental data: patent publication US20260167718A1 (Merck Sharp & Dohme, published 2026)

T1: rhesus ILT3-His tagged recombinant protein (rhesus monkey (Macaca mulatta))
T1 construct: also called ILT3_MM; not shown: His tag
T1 chain: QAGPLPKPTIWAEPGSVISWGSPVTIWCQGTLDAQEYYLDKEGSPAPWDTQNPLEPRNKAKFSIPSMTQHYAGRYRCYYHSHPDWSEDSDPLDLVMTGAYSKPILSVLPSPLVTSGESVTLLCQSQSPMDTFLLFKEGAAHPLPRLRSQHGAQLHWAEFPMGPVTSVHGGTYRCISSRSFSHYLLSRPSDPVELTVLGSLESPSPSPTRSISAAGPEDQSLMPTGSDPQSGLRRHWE


Legend:
[1] = target: T2, Human ILT3 (LILRB4) extracellular domain with C-terminal His Tag (human, UniProt Q8NHJ6 22-259); assay: SPR (Biacore), human ILT3-His
T2 construct: the claims count residues 1-238 as the extracellular domain; also called human ILT3-His; ILT3_H
Experimental: (§1) The binding kinetics and affinities of anti-human ILT3 clones for human or rhesus ILT3-His tagged recombinant protein were measured by surface plasmon resonance using a Biacore™ T200 system (GE Healthcare, Piscataway, NJ). HBS-EP+ buffer (BR-1006-69) was used as the running buffer. Anti-human Fc antibody (Human Fc Capture Kit, BR100839, GE Healthcare) was immobilized via amine coupling chemistry in all four flow cells on a Series S CM5 sensor chip (BR100530 or 29149603, GE Healthcare) following manufacturer instructions. Flow cell 1 was used as reference for background subtraction and was not used for capture. […] Following each injection cycle, all four flow cells were regenerated using 30 second injection of 3M MgCl₂ solution at a flow rate of 10 μL/minute. Reference subtracted sensorgrams were fit to a 1:1 Langmuir Binding Model in the Biacore™ T200 Evaluation Software (Version 2.0) to determine the association (ka) and dissociation (kd) rate constants and the equilibrium dissociation constant KD (=kd/ka).

[2] = target: T1, rhesus ILT3-His tagged recombinant …; assay: SPR (Biacore), rhesus ILT3-His
Experimental: as §1

| Kd [1] | Kd [2] | Binder | binding result [1] | binding result [2] |
| --- | --- | --- | --- | --- |
| 0.99 nM | 25 nM | Humanized anti-ILT3 mAb (52B8 VH1/VL1) IgG4 S228P/Kappa (antibody, V domains shown, also called mAb 1) VH: EVQLVESGGGLVQPGGSLRLSCAASGFTFSNYGMSWVRQAPGKGLEWVATISGGGDYTNYPDSMRGRFTISRDNAKNSLYLQMNSLRAEDTAVYYCGRRLWFRSLYYAMDYWGQGTLVTVSS VL: DIVLTQSPDSLAVSLGERATINCRASEKVDSFGNSFMHWYQQKPGQPPKLLIYLTSNLDSGVPDRFSGSGSRTDFTLTISSLQAEDVAVYYCQQNNEDPYTFGQGTKLEIKR |  |  |
|  |  | Humanized anti-ILT3 mAb (52B8 VH1 M64V W101Q/VL5 N34D) IgG4 S228P/Kappa (antibody, V domains shown, also called mAb 62) VH: EVQLVESGGGLVQPGGSLRLSCAASGFTFSNYGMSWVRQAPGKGLEWVATISGGGDYTNYPDSVRGRFTISRDNAKNSLYLQMNSLRAEDTAVYYCGRRLQFRSLYYAMDYWGQGTLVTVSS VL: DIQLTQSPSSLSASVGDRVTITCRASEKVDSFGDSFMHWYQQKPGKAPKLLIYLTSNLDSGVPSRFSGSGSGTDFTLTISSLQPEDFATYYCQQNNEDPYTFGQGTKLEIKR | no binding (tested: ILT3-His injected up to 20 nM) | no binding (tested: ILT3-His injected up to 20 nM) |
|  |  | Humanized anti-ILT3 mAb (52B8 VH1 M64V W101Y/VL5 N34D) IgG4 S228P/Kappa (antibody, V domains shown, also called mAb 58) VH: EVQLVESGGGLVQPGGSLRLSCAASGFTFSNYGMSWVRQAPGKGLEWVATISGGGDYTNYPDSVRGRFTISRDNAKNSLYLQMNSLRAEDTAVYYCGRRLYFRSLYYAMDYWGQGTLVTVSS VL: DIQLTQSPSSLSASVGDRVTITCRASEKVDSFGDSFMHWYQQKPGKAPKLLIYLTSNLDSGVPSRFSGSGSGTDFTLTISSLQPEDFATYYCQQNNEDPYTFGQGTKLEIKR | no binding (tested: ILT3-His injected up to 20 nM) | no binding (tested: ILT3-His injected up to 20 nM) |
| 35 nM |  | Humanized anti-ILT3 mAb (52B8 VH1 M64V W101F/VL5 N34Q) IgG4 S228P/Kappa (antibody, V domains shown, also called mAb 53) VH: EVQLVESGGGLVQPGGSLRLSCAASGFTFSNYGMSWVRQAPGKGLEWVATISGGGDYTNYPDSVRGRFTISRDNAKNSLYLQMNSLRAEDTAVYYCGRRLFFRSLYYAMDYWGQGTLVTVSS VL: DIQLTQSPSSLSASVGDRVTITCRASEKVDSFGQSFMHWYQQKPGKAPKLLIYLTSNLDSGVPSRFSGSGSGTDFTLTISSLQPEDFATYYCQQNNEDPYTFGQGTKLEIKR |  | no binding (tested: ILT3-His injected up to 20 nM) |
| 0.94 nM | 25 nM | Humanized anti-ILT3 mAb (52B8 VH2/VL1) IgG4 S228P/Kappa (antibody, V domains shown) VH: EVQLVESGGGLVQPGGSLRLSCAASGFTFSNYGMSWVRQAPGKGLEWVATISGGGDYTNYPDSMRGRFTISRDNAKNSLYLQMNSLKAEDTAVYYCGRRLWFRSLYYAMDYWGQGTLVTVSS VL: DIVLTQSPDSLAVSLGERATINCRASEKVDSFGNSFMHWYQQKPGQPPKLLIYLTSNLDSGVPDRFSGSGSRTDFTLTISSLQAEDVAVYYCQQNNEDPYTFGQGTKLEIKR |  |  |
|  |  | Humanized anti-ILT3 mAb (52B8 VH1 M64V W101F/VL5 S35N) IgG4 S228P/Kappa (antibody, V domains shown) VH: EVQLVESGGGLVQPGGSLRLSCAASGFTFSNYGMSWVRQAPGKGLEWVATISGGGDYTNYPDSVRGRFTISRDNAKNSLYLQMNSLRAEDTAVYYCGRRLFFRSLYYAMDYWGQGTLVTVSS VL: DIQLTQSPSSLSASVGDRVTITCRASEKVDSFGNNFMHWYQQKPGKAPKLLIYLTSNLDSGVPSRFSGSGSGTDFTLTISSLQPEDFATYYCQQNNEDPYTFGQGTKLEIKR | no binding (tested: ILT3-His injected up to 20 nM) | no binding (tested: ILT3-His injected up to 20 nM) |
|  |  | Humanized anti-ILT3 mAb (52B8 VH1 M64V W101Q/VL5 S35N) IgG4 S228P/Kappa (antibody, V domains shown, also called mAb 60) VH: EVQLVESGGGLVQPGGSLRLSCAASGFTFSNYGMSWVRQAPGKGLEWVATISGGGDYTNYPDSVRGRFTISRDNAKNSLYLQMNSLRAEDTAVYYCGRRLQFRSLYYAMDYWGQGTLVTVSS VL: DIQLTQSPSSLSASVGDRVTITCRASEKVDSFGNNFMHWYQQKPGKAPKLLIYLTSNLDSGVPSRFSGSGSGTDFTLTISSLQPEDFATYYCQQNNEDPYTFGQGTKLEIKR | no binding (tested: ILT3-His injected up to 20 nM) | no binding (tested: ILT3-His injected up to 20 nM) |
|  |  | Humanized anti-ILT3 mAb (52B8 VH1 M64V W101Y/VL5 N34Q) IgG4 S228P/Kappa (antibody, V domains shown, also called mAb 57) VH: EVQLVESGGGLVQPGGSLRLSCAASGFTFSNYGMSWVRQAPGKGLEWVATISGGGDYTNYPDSVRGRFTISRDNAKNSLYLQMNSLRAEDTAVYYCGRRLYFRSLYYAMDYWGQGTLVTVSS VL: DIQLTQSPSSLSASVGDRVTITCRASEKVDSFGQSFMHWYQQKPGKAPKLLIYLTSNLDSGVPSRFSGSGSGTDFTLTISSLQPEDFATYYCQQNNEDPYTFGQGTKLEIKR | no binding (tested: ILT3-His injected up to 20 nM) | no binding (tested: ILT3-His injected up to 20 nM) |
|  |  | Humanized anti-ILT3 mAb (52B8 VH1 M64V W101F/VL5 S35A) IgG4 S228P/Kappa (antibody, V domains shown, also called mAb 51) VH: EVQLVESGGGLVQPGGSLRLSCAASGFTFSNYGMSWVRQAPGKGLEWVATISGGGDYTNYPDSVRGRFTISRDNAKNSLYLQMNSLRAEDTAVYYCGRRLFFRSLYYAMDYWGQGTLVTVSS VL: DIQLTQSPSSLSASVGDRVTITCRASEKVDSFGNAFMHWYQQKPGKAPKLLIYLTSNLDSGVPSRFSGSGSGTDFTLTISSLQPEDFATYYCQQNNEDPYTFGQGTKLEIKR | no binding (tested: ILT3-His injected up to 20 nM) | no binding (tested: ILT3-His injected up to 20 nM) |
|  |  | Humanized anti-ILT3 mAb (52B8 VH1 M64V W101Q/VL5 N34Q) IgG4 S228P/Kappa (antibody, V domains shown, also called mAb 61) VH: EVQLVESGGGLVQPGGSLRLSCAASGFTFSNYGMSWVRQAPGKGLEWVATISGGGDYTNYPDSVRGRFTISRDNAKNSLYLQMNSLRAEDTAVYYCGRRLQFRSLYYAMDYWGQGTLVTVSS VL: DIQLTQSPSSLSASVGDRVTITCRASEKVDSFGQSFMHWYQQKPGKAPKLLIYLTSNLDSGVPSRFSGSGSGTDFTLTISSLQPEDFATYYCQQNNEDPYTFGQGTKLEIKR | no binding (tested: ILT3-His injected up to 20 nM) | no binding (tested: ILT3-His injected up to 20 nM) |
| 0.94 nM | 26 nM | Humanized anti-ILT3 mAb (52B8 VH1 M64V/VL1) IgG4 S228P/Kappa (antibody, V domains shown, also called mAb 9) VH: EVQLVESGGGLVQPGGSLRLSCAASGFTFSNYGMSWVRQAPGKGLEWVATISGGGDYTNYPDSVRGRFTISRDNAKNSLYLQMNSLRAEDTAVYYCGRRLWFRSLYYAMDYWGQGTLVTVSS VL: DIVLTQSPDSLAVSLGERATINCRASEKVDSFGNSFMHWYQQKPGQPPKLLIYLTSNLDSGVPDRFSGSGSRTDFTLTISSLQAEDVAVYYCQQNNEDPYTFGQGTKLEIKR |  |  |
|  |  | Humanized anti-ILT3 mAb (52B8 VH1 M64V W101Y/VL5 S35A) IgG4 S228P/Kappa (antibody, V domains shown, also called mAb 55) VH: EVQLVESGGGLVQPGGSLRLSCAASGFTFSNYGMSWVRQAPGKGLEWVATISGGGDYTNYPDSVRGRFTISRDNAKNSLYLQMNSLRAEDTAVYYCGRRLYFRSLYYAMDYWGQGTLVTVSS VL: DIQLTQSPSSLSASVGDRVTITCRASEKVDSFGNAFMHWYQQKPGKAPKLLIYLTSNLDSGVPSRFSGSGSGTDFTLTISSLQPEDFATYYCQQNNEDPYTFGQGTKLEIKR | no binding (tested: ILT3-His injected up to 20 nM) | no binding (tested: ILT3-His injected up to 20 nM) |
|  |  | Humanized anti-ILT3 mAb (52B8 VH1 M64V W101F/VL5 N34D) IgG4 S228P/Kappa (antibody, V domains shown, also called mAb 54) VH: EVQLVESGGGLVQPGGSLRLSCAASGFTFSNYGMSWVRQAPGKGLEWVATISGGGDYTNYPDSVRGRFTISRDNAKNSLYLQMNSLRAEDTAVYYCGRRLFFRSLYYAMDYWGQGTLVTVSS VL: DIQLTQSPSSLSASVGDRVTITCRASEKVDSFGDSFMHWYQQKPGKAPKLLIYLTSNLDSGVPSRFSGSGSGTDFTLTISSLQPEDFATYYCQQNNEDPYTFGQGTKLEIKR | no binding (tested: ILT3-His injected up to 20 nM) | no binding (tested: ILT3-His injected up to 20 nM) |
| 0.94 nM | 25 nM | Humanized anti-ILT3 mAb (52B8 VH2 M64V/VL1) IgG4 S228P/Kappa (antibody, V domains shown, also called mAb 13) VH: EVQLVESGGGLVQPGGSLRLSCAASGFTFSNYGMSWVRQAPGKGLEWVATISGGGDYTNYPDSVRGRFTISRDNAKNSLYLQMNSLKAEDTAVYYCGRRLWFRSLYYAMDYWGQGTLVTVSS VL: DIVLTQSPDSLAVSLGERATINCRASEKVDSFGNSFMHWYQQKPGQPPKLLIYLTSNLDSGVPDRFSGSGSRTDFTLTISSLQAEDVAVYYCQQNNEDPYTFGQGTKLEIKR |  |  |
|  |  | Humanized anti-ILT3 mAb (52B8 VH1 M64V W101Q/VL5 S35A) IgG4 S228P/Kappa (antibody, V domains shown, also called mAb 59) VH: EVQLVESGGGLVQPGGSLRLSCAASGFTFSNYGMSWVRQAPGKGLEWVATISGGGDYTNYPDSVRGRFTISRDNAKNSLYLQMNSLRAEDTAVYYCGRRLQFRSLYYAMDYWGQGTLVTVSS VL: DIQLTQSPSSLSASVGDRVTITCRASEKVDSFGNAFMHWYQQKPGKAPKLLIYLTSNLDSGVPSRFSGSGSGTDFTLTISSLQPEDFATYYCQQNNEDPYTFGQGTKLEIKR | no binding (tested: ILT3-His injected up to 20 nM) | no binding (tested: ILT3-His injected up to 20 nM) |
| 0.87 nM | 24 nM | Humanized anti-ILT3 mAb (52B8 VH1 M64L/VL1) IgG4 S228P/Kappa (antibody, V domains shown, also called mAb 17) VH: EVQLVESGGGLVQPGGSLRLSCAASGFTFSNYGMSWVRQAPGKGLEWVATISGGGDYTNYPDSLRGRFTISRDNAKNSLYLQMNSLRAEDTAVYYCGRRLWFRSLYYAMDYWGQGTLVTVSS VL: DIVLTQSPDSLAVSLGERATINCRASEKVDSFGNSFMHWYQQKPGQPPKLLIYLTSNLDSGVPDRFSGSGSRTDFTLTISSLQAEDVAVYYCQQNNEDPYTFGQGTKLEIKR |  |  |
